According to the RNAGym collection of RNA variant scans (doi:10.1093/nar/gkz1192):

B1: CPEB3 Ribozyme (parent)
chain: UAACAGGGGGCCACAGCAGAAGCGUUCACGUCGCAGCCCCUGUCAGAUUCUGGUGAAUCUGCGAAUUCUGCUGUAUAUCUC

Variants of: B1
Assay: self-cleavage, relative activity (ratio to wild type); higher = more cleavage; in vitro, sequencing
In short: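 After error-prone PCR and barcoding, CPEB3 ribozyme mutant libraries were transcribed with T7 RNA polymerase at 37°C for 5 hours, then given 15 min with DNase I before an EDTA stop, and they cleaved during both steps. Reverse transcription with template switching preceded Illumina sequencing. Relative activity divides a variant's cleaved/total read fraction by the unmutated ribozyme's. At least 5 reads were required per variant, and three batches were averaged.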

Variant	self-cleavage
A18G C81A	0.55
A18U C44G	0.24
A18U C44A	0.15
A18U C44U	0.2
A18C U54C	0.32
A18C U54A	0.37
A18C U51A	0.42
A18C U51C	0.36
A18G U69A	0.48
A18G U69G	0.49
A18G U69C	1.18
A18G C50U	0.63
A18G C37A	0.32
A18C U26C	0.44
A18C A28G	0.29
A18C A28U	0.37
A18C A28C	0.43
A18G C23U	0.12
A18G C23A	0.26
A18G C23G	0.61
A18C A57G	0.3
A18C C68A	0.18
C17U U58C	0.17
C17U U58G	0.15

Variant	self-cleavage
A18G C59A	0.23
A18G C59G	0.25
A18G C59U	0.43
A18C A56G	0.17
A18C A56U	0.14
C17U U43C	0.41
A18U A21U	0.28
A18U A21C	0.2
A18U A21G	0.25
C17U U54C	0.66
A18C C27U	0.21
A18C U80C	0.54
A18C U80A	0.54
A18G G55A	0.47
A18G G55U	0.7
C17U U74A	1.02
C17U U74C	0.97
A18U A65G	0.28
A18U A65U	0.2
A18G A57G	0.55
A18G A57C	0.49
A18G A57U	0.36
A18C U43A	0.64
A18C U43C	0.21

Variant	self-cleavage
A18C U43G	0.07
A18U G30U	0.17
A18U G30A	0.15
C17U U48C	0.31
C17U U48A	0.24
A18G A28G	0.33
A18G A28C	0.38
A18G A28U	0.5
A18C C37A	0.33
A18C C29U	0.31
A18U A64G	0.31
A18U A64U	0.28
A18U G42C	0.18
A18U G42A	0.36
A18U G53U	0.45
A18U G53A	0.56
A18U G63C	0.37
A18U G63A	0.48
A18U G63U	0.57
A18C U58C	0.3
A18C U58A	0.21
A18G A47U	0.44
A18G A47C	0.12
A18G A47G	0.66

Variant	self-cleavage
A18U C29A	0.19
A18U C29U	0.17
A18G U78A	0.82
A18G U78G	0.53
A18G U78C	0.82
A18U C59U	0.23
A18U C59A	0.17
A18U C59G	0.15
A18G A64G	0.43
A18G A64U	0.29
A18U A56C	0.21
A18U A56U	0.31
A18U A56G	0.3
A18U G22U	0.24
A18G U66A	0.31
A18G U66C	0.29
A18G G52A	0.82
A18G G52U	0.83
A18G G52C	0.94
C17U U60C	0.21
C17U U60A	0.23
A18C U48A	0.2
A18C U48C	0.25
A18G U43A	0.72

Variant	self-cleavage
A18G U43C	0.35
A18G U43G	0.36
A18G A20G	0.49
A18G A20U	0.27
A18U C79A	0.75
A18U C79U	0.26
A18C C62U	0.39
A18G G30A	0.2
A18U G33A	0.3
A18U C68A	0.2
A18G C68U	0.52
A18G C68A	0.21
A18C U25C	0.27
A18U A57U	0.33
A18U A57G	0.37
A18G G53A	0.9
A18G G53U	0.56
A18G C44A	0.28
A18G C44G	0.16
A18G C44U	0.2
A18G G46A	0.35
A18G G46U	0.16
A18C U67C	0.18
A18U A77U	0.48

Variant	self-cleavage
A18U A77G	0.51
A18C A35U	0.16
A18C A35G	1.03
A18G C79U	0.9
A18G C79G	0.73
A18G C71A	0.29
A18G C71G	0.27
A18G C71U	0.28
A18U G19U	0.21
A18U G19C	0.23
A18U G19A	0.15
A18G	0.71
A18U	0.4
A18C	0.41
A18U A45C	0.16
A18U A45U	0.25
A18U A45G	0.32
A18G A77G	0.78
A18G A77C	0.39
A18G A77U	0.78
A18G G19C	0.2
A18G G19U	0.32
C17U U67C	0.22
C17U U66C	0.23

Variant	self-cleavage
A18U C62G	0.27
A18U C62U	0.33
A18U C62A	0.28
A18G U31A	0.41
A18G U31C	0.3
A18G U26A	0.48
A18G U26C	0.33
A18U C23U	0.23
A18U C23A	0.1
A18U C23G	0.22
A18C C71A	0.09
A18C C32U	0.43
A18U G24A	0.36
A18C U31A	0.19
A18C U31C	0.28
C17U U72C	0.74
C17U U72G	0.4
C17U U72A	0.21
A18G G73A	1.24
A18G G42U	0.27
A18U C32A	0.17
A18U C32U	0.08
A18U C32G	0.17
A18C A21G	0.21

Variant	self-cleavage
A18G G33U	0.19
A18G G33A	0.23
C17U U76C	0.83
A18U G61C	0.14
A18U G61U	0.28
A18U G61A	0.3
A18U G46U	0.2
A18C U49C	0.29
A18C U49G	0.17
A18U C34U	0.25
A18U C34A	0.23
A18C C34U	0.22
A18C A64G	0.38
A18U G52A	0.39
A18U G52U	0.39
A18G C38U	0.73
A18G C29A	0.26
A18G C29U	0.42
A18G G22A	0.24
A18G G22C	0.24
A18G G22U	0.22
A18C C39A	0.41
A18C C38U	0.12
A18C A75G	0.41

Variant	self-cleavage
A18G U54G	0.36
A18G U54A	0.8
A18G U54C	0.57
A18U C38U	0.31
A18G U72A	0.35
A18G U72G	0.29
A18G U72C	0.68
C17U U51C	0.56
C17U U51G	0.74
A18G A45G	0.46
A18G A45U	0.35
A18G A45C	0.3
A18G A75U	0.82
A18G A75G	0.57
A18G A75C	0.91
A18G U48C	0.31
A18G U48A	0.16
A18C U66C	0.21
C17U U69G	0.25
C17U U69C	0.21
C17U U69A	0.4
C17U U80C	0.85
A18G U60A	0.38
A18G U60C	0.28

Variant	self-cleavage
A18G U60G	0.14
A18G C27G	0.41
A18G C27U	0.42
A18U A75U	0.5
A18U A75G	0.38
A18C A65G	0.26
A18C A65U	0.16
A18G U51C	0.48
A18G U51G	0.77
A18G U51A	0.74
A18G C34G	0.08
A18G C34U	0.15
A18G U80C	0.86
A18G U80A	0.9
A18U C39U	0.3
A18U C39A	0.24
C17U U78C	0.63
A18C A45U	0.1
A18C A45C	0.21
A18C A45G	0.29
A18C G33U	0.13
A18C G33A	0.42
A18C A20G	0.44
A18C A20U	0.15

Variant	self-cleavage
A18G U25A	0.38
A18G U25C	0.26
A18G U25G	0.17
A18G U67C	0.26
A18G U67G	0.28
A18G U67A	0.31
A18G G70A	0.37
A18G G70C	0.13
A18G C32G	0.1
A18G C32A	0.15
A18G C32U	0.2
A18C U72C	0.46
A18C U72G	0.12
A18C U72A	0.16
A18U A28C	0.15
A18U A28G	0.26
A18U A28U	0.29
A18G A35G	1.06
A18G A35C	0.38
A18G A35U	0.27
A18U C40U	0.45
A18U C40G	0.18
A18U C40A	0.13
A18G G24C	0.28

Variant	self-cleavage
A18G G24A	0.15
A18U A35U	0.22
A18U A35G	0.7
A18U A35C	0.34
A18C A77G	0.26
A18C U41G	0.53
A18C U41A	0.32
A18C U41C	0.34
A18C U74C	0.58
A18C U74G	0.31
A18U A47G	0.37
A18U A47U	0.3
A18G U58C	0.28
A18G U58A	0.21
A18G U58G	0.28
A18C G30A	0.31
A18C C79A	0.9
A18G A56C	0.25
A18G A56U	0.35
A18G A56G	0.55
A18G A21C	0.4
A18G A21G	0.4
A18G A21U	0.33
A18U A20G	0.34

Variant	self-cleavage
A18U A20U	0.25
A18C U69C	0.35
A18C U69A	0.52
A18G C62G	0.13
A18G C62U	0.32
A18G C62A	0.23
A18G A65G	0.34
A18G A65U	0.38
A18U C81A	0.69
A18U C81U	0.51
A18U C81G	0.27
A18C A47G	0.26
A18U G36U	0.19
A18C U78C	0.4
A18G U74A	0.95
A18G U74G	1.21
A18G U74C	1.1
A18G C40A	0.14
A18G C40U	0.44
A18G C39A	0.47
A18G C39G	0.21
A18G C39U	0.52
A18G U49A	0.32
A18G U49C	0.29

Variant	self-cleavage
A18G U76C	0.58
A18G U76A	0.73
A18C U60A	0.23
A18C U60C	0.28
A18U C50U	0.42
A18U C50A	0.4
A18C G42A	0.17
C17U U49C	0.15
A18U G55A	0.29
A18U G55U	0.41
A18G G63C	0.55
A18G G63A	0.51
A18G G63U	1.02
A18G U41C	0.68
A18G U41G	0.42
A18G U41A	0.26
A18G G61A	0.3
A18C C40A	0.34
A18C C50U	0.51
A18C C50A	0.12
A18G G36A	0.31
A18G G36C	0.13
